The values below are quoted from earlier work in article PMC4623604, “Discovery of Small Molecules that Inhibit the Disordered Protein, p27^Kip1” (Scientific Reports, 2015).

The target in the series is cyclin A (Homo sapiens) (UniProt P20248).
Sequence of cyclin A (Homo sapiens) (P20248 whole entry): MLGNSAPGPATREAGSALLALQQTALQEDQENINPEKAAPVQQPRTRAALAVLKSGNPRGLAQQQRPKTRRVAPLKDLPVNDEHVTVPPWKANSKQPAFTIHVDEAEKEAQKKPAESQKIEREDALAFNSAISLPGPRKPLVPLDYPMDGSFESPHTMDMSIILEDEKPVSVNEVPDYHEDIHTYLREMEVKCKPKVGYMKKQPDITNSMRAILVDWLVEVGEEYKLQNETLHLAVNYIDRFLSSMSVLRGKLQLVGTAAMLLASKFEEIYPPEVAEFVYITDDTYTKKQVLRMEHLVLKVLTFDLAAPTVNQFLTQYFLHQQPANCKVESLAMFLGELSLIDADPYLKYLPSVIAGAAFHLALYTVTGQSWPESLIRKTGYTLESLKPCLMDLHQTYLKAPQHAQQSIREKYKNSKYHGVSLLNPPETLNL

The Kd is the constant that tells how readily two partners part at equilibrium. Turning to p27 D1 (from UniProt P46527), the dissociation constant Kd is 42 nM.
